Measured values taken from paper PMC6761020.

Target: Human Type IV Collagen (human) (UniProt P02462)
Assay: ELISA

Sequence of Human Type IV Collagen (human) (P02462 173-1669): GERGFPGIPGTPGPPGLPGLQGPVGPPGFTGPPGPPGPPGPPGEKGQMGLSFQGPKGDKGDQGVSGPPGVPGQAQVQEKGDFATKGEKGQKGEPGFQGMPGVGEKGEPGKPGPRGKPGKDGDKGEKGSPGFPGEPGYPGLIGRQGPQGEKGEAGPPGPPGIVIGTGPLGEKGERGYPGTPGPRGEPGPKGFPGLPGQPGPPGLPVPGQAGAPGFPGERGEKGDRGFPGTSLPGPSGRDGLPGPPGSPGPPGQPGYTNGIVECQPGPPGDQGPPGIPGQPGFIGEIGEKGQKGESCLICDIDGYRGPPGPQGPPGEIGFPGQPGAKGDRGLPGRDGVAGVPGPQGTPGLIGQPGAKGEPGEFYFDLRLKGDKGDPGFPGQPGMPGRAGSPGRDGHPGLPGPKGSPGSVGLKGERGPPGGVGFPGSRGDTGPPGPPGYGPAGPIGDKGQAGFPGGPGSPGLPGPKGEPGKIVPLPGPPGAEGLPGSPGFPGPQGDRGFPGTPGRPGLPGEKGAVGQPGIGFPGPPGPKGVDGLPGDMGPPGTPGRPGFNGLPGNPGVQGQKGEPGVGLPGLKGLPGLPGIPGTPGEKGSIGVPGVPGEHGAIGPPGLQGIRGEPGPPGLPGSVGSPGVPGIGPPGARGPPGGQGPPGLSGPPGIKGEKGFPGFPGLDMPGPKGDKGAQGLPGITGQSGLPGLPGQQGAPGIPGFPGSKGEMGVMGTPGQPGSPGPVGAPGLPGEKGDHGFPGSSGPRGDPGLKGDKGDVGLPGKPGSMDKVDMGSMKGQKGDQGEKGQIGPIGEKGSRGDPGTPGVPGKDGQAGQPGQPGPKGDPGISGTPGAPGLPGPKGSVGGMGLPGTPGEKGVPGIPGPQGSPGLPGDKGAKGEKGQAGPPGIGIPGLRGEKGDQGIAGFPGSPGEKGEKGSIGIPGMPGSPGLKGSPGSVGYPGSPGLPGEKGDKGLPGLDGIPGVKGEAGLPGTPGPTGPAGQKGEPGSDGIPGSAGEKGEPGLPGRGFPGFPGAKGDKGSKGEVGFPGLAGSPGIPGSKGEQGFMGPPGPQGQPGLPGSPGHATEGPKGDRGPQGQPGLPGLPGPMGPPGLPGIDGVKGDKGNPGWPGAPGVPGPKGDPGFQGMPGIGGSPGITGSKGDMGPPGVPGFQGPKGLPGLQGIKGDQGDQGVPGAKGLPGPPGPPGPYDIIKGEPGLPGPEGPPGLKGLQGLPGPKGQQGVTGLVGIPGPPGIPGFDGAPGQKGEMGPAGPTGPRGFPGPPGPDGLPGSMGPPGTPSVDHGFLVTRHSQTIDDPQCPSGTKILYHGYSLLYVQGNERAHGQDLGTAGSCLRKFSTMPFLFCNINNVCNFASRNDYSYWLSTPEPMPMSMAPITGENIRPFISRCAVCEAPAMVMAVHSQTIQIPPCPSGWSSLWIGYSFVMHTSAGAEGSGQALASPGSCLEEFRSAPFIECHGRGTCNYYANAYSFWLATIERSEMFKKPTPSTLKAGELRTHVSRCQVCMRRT

percent reduction of binding by 10 μg/ml ARC1779 against saline: 34%
Substance: von Willebrand factor (human, plasma) (from UniProt P04275 764-2813) (natural protein)
